Results taken from patent US20060204979A1 (INVITROGEN, published 2006).
Changes are numbered by the printed parent chain. In names and notes the source's numbering stands.

B1: RalGDS ras association (RA) domain expressed from pEXP22/RalGDS as GAL4 AD fusion (other, UniProt Q03386 767-864, looked up, not shown: large carriers)
chain: SSSLPLYNQQVGDCCIIRVSLDVDNGNMYKSILVTSQDKAPTVIRKAMDKHNLDEDEPEDYELLQIISEDHKLKIPENANVFYAMNSAANYDFILKKR
notes: domain: ras association domain; Prey; also called RalGDS wild type
B2: Fos (leucine zipper region), negative control prey with Krev1 (other, UniProt P01100 132-211, looked up, not shown: large carriers)
chain: LSPEEEEKRRIRRERNKMAAAKCRNRRRELTDTLQAETDQLEDEKSALQTEIANLLKEKEKLEFILAAHRPACKIPDDLG
notes: domain: leucine zipper region; the only Fos ORF it describes is the leucine zipper region
B3: RalGDS RA allele 16, R20M (other, not shown: small tags and cut ends)
chain: YNQQVGDCCIIMVSLDVDNGNMYKSILVTSQDKAPTVIRKAMDKHNLDEDEPEDYELLQIISEDHKLKIPENANVFYAMNSAANYDFILKKR
B4: RalGDS RA allele 23, M50V (other, not shown: small tags and cut ends)
chain: B3 chain with M12R, M42V
B5: RalGDS RA alleles 6 and 15, K52E (other, not shown: small tags and cut ends)
chain: B3 chain with M12R, K44E
notes: also called clone 6 (RalGDS screen); clone 15
B6: RalGDS RA allele 22, Q67R (other, not shown: small tags and cut ends)
chain: B3 chain with M12R, Q59R
B7: RalGDS RA allele 4, I77T (other, not shown: small tags and cut ends)
chain: B3 chain with M12R, I69T
B8: RalGDS RA alleles 3, 8, 27, 30, 35 and 36, L65P (other, not shown: small tags and cut ends)
chain: B3 chain with M12R, L57P
notes: Six clones with the same amino acid change; also called clone 3; clone 8
B9: RalGDS RA alleles 17 and 19, Y31C (other, not shown: small tags and cut ends)
chain: B3 chain with M12R, Y23C
notes: also called clone 17; clone 19
B10: RalGDS RA allele 2, L66P (other, not shown: small tags and cut ends)
chain: B3 chain with M12R, L58P
notes: also called clone 2

Each binder was assayed against T1, Krev1 (full-length ORF) expressed from pEXP32/Krev1 as GAL4 DBD fusion (rat, UniProt P04386 1-147; P62836 1-184) (assay: yeast two-hybrid (ProQuest)).
T1 construct: Bait; also called Rap1A

Row | Binder | binding result
1 | B1 | binds

What follows are binders tested against T1, Krev1 (full-length ORF) expressed from … (assay: yeast two-hybrid negative control, HIS3/3-AT reporter).
Method: Yeast transformations were performed according to MaV203 competent yeast cell protocol (Invitrogen, Carlsbad, Calif.) using Gateway destination vectors pDEST32 and pDEST 22 (Invitrogen.com). Briefly, 25 μl cells are mixed with 1 μg bait construct (pEXP32-Bait ORF) and 1 μg prey allele library (EXP22-Prey allele library). pEXP32 is an expression construct in which a partner sequence (“bait”) is fused to the GAL4 DBD. pEXP22 is an expression construct in which a target sequence (“prey”) is fused to the GAL4 AD. Next, 180 μl LiAc/PEG solution is added and tube is inverted several times to mix. Incubate at 30° C. for 30 min, add 10 μl DMSO and heat shock at 42° C. for 10 min. Spin down cells at 1800 rpm, resuspend in 1 ml dH2O, serial dilute to 10⁻². Plate 100 μl of dilutions 10⁻¹ and 10⁻² on CSM-LW, and 100 μl undiluted and dilution 10⁻¹ on CSM-LW+5-FOA. Incubate plates at 30° C. for 3-5 five days. Patch colonies from CSM-LW+5-FOA onto CSM-LW (along with positive and negative control patches) and incubate at 30° C. for 2 days. Replica plate onto CSM-LW and CSM-LWH+3-AT (10 mM, 25 mM, 50 mM and 100 mM). […]
In creating the allele library for RalGDS, it was calculated using the guidelines in Materials and Methods that 200,000 individual Kan⁺ clones was sufficient to provide good library representation for the 296 bp ORF. […]

Row | Binder | binding result
2 | B2 | no binding

What follows are binders tested against T1, Krev1 (full-length ORF) expressed from … (assay: cell-based or functional assay).

Row | Binder | 3-AT Phenotype (concentration of 3-AT required to inhibit growth under histidine selection, HIS3 reporter) [mM]
3 | B3 | 50
4 | B4 | > 100
5 | B5 | 10
6 | B6 | 100
7 | B7 | > 100
8 | B8 | 10
9 | B9 | 10
10 | B10 | 10

The binders below were run against T1, Krev1 (full-length ORF) expressed from … (assay: yeast two-hybrid; no growth under histidine selection with 10 mM 3-AT, no URA3 activation).
Method: To confirm the initial mutant phenotypes, plasmid DNA from the 17 mutant alleles and 6 wild type clones was co-transformed into MaV203 with pEXP32-Krev1. Transformants were tested for their ability to activate the URA3 reporter, as well as the HIS3 reporter in the presence of 10 mM, 25 mM, 50 mM or 100 mM 3-AT. All six wild type clones (7, 9, 11, 12, 20 and 21) produced strong URA⁺ and HIS3/100 mM 3-AT⁺ phenotypes, except clone 20. […] Clone 4 (I77T) and 23 (M50V) were the only mutants displaying a strong growth phenotype in the presence of 100 mM 3-AT.

Row | Binder | binding result
11 | B5 | no binding
12 | B8 | no binding
13 | B9 | no binding
14 | B10 | no binding
